How the values were obtained:
[1] = target: T1, 38A (25-38A) human α-CGRP (Homo sapiens, UniProt P06881); test: Biacore affinity of G1 Fab to CGRP variant on chip; assay type: binding; settings: 38A (25-38A) on chip, 37° C.
T1 construct: 25-38A; 24; purchased GenScript Corporation, New Jersey or Global Peptide Services, Colorado
Procedure: Biacore assay for affinity determination. […] All Biacore assays were conducted in HBS-EP running buffer (10 mM HEPES pH 7.4, 150 mM NaCl, 3 mM EDTA, 0.005% v/v polysorbate P20). CGRP surfaces were prepared by diluting the N-biotinylated CGRP to a concentration of less than 0.001 mg/mL into HBS-EP buffer and injecting it across the SA sensor chip using variable contact times. Low capacity surfaces, corresponding to capture levels <50 response units (RU) were used for high-resolution kinetic studies, whereas high capacity surfaces (about 800 RU of captured CGRP) were used for concentration studies, screening, and solution affinity determinations. […] Samples were typically injected for 1 minute at 100 μL/min and dissociation times of at least 10 minutes were allowed. After each binding cycle, surfaces were regenerated with 25 mM NaOH in 25% v/v ethanol, which was tolerated over hundreds of cycles. An entire titration series (typically generated in duplicate) was fit globally to a 1:1 Langmuir binding model using the BIAevaluation program. This returned a unique pair of association and dissociation kinetic rate constants (respectively, kon and koff) for each binding interaction, whose ratio gave the equilibrium dissociation constant (KD=koff/kon).

[2] = test system: naïve central trigeminovascular neurons (HT, WDR) in the spinal trigeminal nucleus; test: Single-unit recording of spontaneous and evoked activity of naïve trigeminovascular neurons; assay type: in vivo, rat; settings: 30 mg/kg i.v.; for effect on spontaneous activity of naïve HT and WDR neurons: 1-4 hours post-treatment vs baseline
Text: Experiments were approved by the Beth Israel Deaconess Medical Center and Harvard Medical School standing committees on animal care, and in accordance with the U.S. National Institutes of Health Guide for the Care and Use of Laboratory Animals. Male and female Sprague-Dawley rats (250-350 g) were anesthetized with urethane (0.9-1.2 g/kg i.p.). They were fitted with an intra-tracheal tube to allow artificial ventilation (0.1 L/min of O2), and an intra-femoral-vein cannula for later infusion of drugs. Rats were placed in a stereotaxic apparatus, and core temperature was kept at 37° C. using a heating blanket. End-tidal CO2 was continuously monitored and kept within physiological range (3.5-4.5 pCO2). Once stabilized, rats were paralyzed with rocuronium bromide (10 mg/ml, 1 ml/hr continuous intravenous infusion) and ventilated. For stimulation of the cranial dura later in the experiment, a 5×5-mm opening was carefully carved in the parietal and occipital bones in front and behind the lambda suture, directly above the left transverse sinus. The exposed dura was kept moist using a modified synthetic interstitial fluid (135 mM NaCl, 5 mM KCl, 1 mM MgCl2, 5 mM CaCl2), 10 mM glucose and 10 mM Hepes, pH 7.2). For single-unit recording in the spinal trigeminal nucleus, a segment of the spinal cord between the obex and C2 was uncovered from overlying tissues, stripped of the dura mater, and kept moist with mineral oil.
To record neuronal activity, a tungsten microelectrode (impedance 3-4 MΩ) was lowered repeatedly into the spinal trigeminal nucleus (STN) in search of central trigeminovascular neurons receiving convergent input from the dura and facial skin. Trigeminovascular neurons were first identified based on their responses to electrical stimulation of the dura. […] Dural receptive fields were mapped by indenting the dura (with the 4.19 g VFH monofilament) at points separated by 1 mm mediolaterally and rostrocaudally. Points at which dural indentation produced a response in ≥50% of the trials were considered inside the neurons receptive field. Cutaneous receptive fields were mapped by applying innocuous and noxious mechanical stimulation to all facial skin areas and the cornea. An area was considered outside the receptive field if no stimulus produced a response in ≥50% of the trials. Responses to mechanical stimulation of the skin were determined by applying brief (10 s) innocuous and noxious stimuli to the most sensitive portion of the cutaneous receptive field. Innocuous stimuli consisted of slowly passing a soft bristled brush across the cutaneous receptive field (one 5-s brush stroke from caudal to rostral and one 5-s brush stroke from rostral to caudal) and pressure applied with a loose arterial clip. Noxious stimuli consisted of pinch with a strong arterial clip (Palecek et al., 1992, J. Neurophysiol. 67:1562-1573; Dado et al., 1994, J. Neurophysiol. 71:981-1002; Burstein et al., 1998, J. Neurophysiol. 79:964-982). More intense or prolonged stimuli were not used to avoid inducing prolonged changes in spontaneous neuronal discharge or response properties. Responses to mechanical stimulation of the cornea consisted of gentle and slow brushing strokes with a thin paintbrush (about 10 hair-follicles). Two classes of neurons were thus identified: wide-dynamic-range (WDR) neurons (incrementally responsive to brush, pressure and pinch), and high-threshold (HT) neurons (unresponsive to brush). Real-time waveform discriminator was used to create and store a template for the action potential evoked in the neuron under study by electrical pulses on the dura; spikes of activity matching the template waveform were acquired and analyzed online and offline using Spike 2 software (CED, Cambridge, UK).
It was diluted in saline to a final dose of 30 mg/kg and administered intravenously (bolus injection, total volume 0.6-0.7 ml). […]

[3] = test system: first-order trigeminovascular neurons (A-delta and C-type meningeal nociceptors); test: Single-unit recording of first-order neurons in the trigeminal ganglion evoked by CSD; assay type: in vivo, rat; settings: male rats
Procedure: CSD was induced by pinprick 4 hours after drug/isotype infusion.

KD (nM) [1]: No binding detected
B1: G1: humanized monoclonal anti-CGRP antagonist antibody; heavy chain SEQ ID NO:11, light chain SEQ ID NO:12 (antibody)
heavy: EVQLVESGGGLVQPGGSLRLSCAASGFTFSNYWISWVRQAPGKGLEWVAEIRSESDASATHYAEAVKGRFTISRDNAKNSLYLQMNSLRAEDTAVYYCLAYFDYGLAIQNYWGQGTLVTVSSASTKGPSVFPLAPCSRSTSESTAALGCLVKDYFPEPVTVSWNSGALTSGVHTFPAVLQSSGLYSLSSVVTVPSSNFGTQTYTCNVDHKPSNTKVDKTVERKCCVECPPCPAPPVAGPSVFLFPPKPKDTLMISRTPEVTCVVVDVSHEDPEVQFNWYVDGVEVHNAKTKPREEQFNSTFRVVSVLTVVHQDWLNGKEYKCKVSNKGLPSSIEKTISKTKGQPREPQVYTLPPSREEMTKNQVSLTCLVKGFYPSDIAVEWESNGQPENNYKTTPPMLDSDGSFFLYSKLTVDKSRWQQGNVFSCSVMHEALHNHYTQKSLSLSPGK
light: EIVLTQSPATLSLSPGERATLSCKASKRVTTYVSWYQQKPGQAPRLLIYGASNRYLGIPARFSGSGSGTDFTLTISSLEPEDFAVYYCSQSYNYPYTFGQGTKLEIKRTVAAPSVFIFPPSDEQLKSGTASVVCLLNNFYPREAKVQWKVDNALQSGNSQESVTEQDSKDSTYSLSSTLTLSKADYEKHKVYACEVTHQGLSSPVTKSFNRGEC
effect on spontaneous activity of naïve HT and WDR neurons ([2]; female rats): did not reduce the spontaneous activity of HT or WDR neurons
decrease of firing of HT neurons in response to dural indentation ([2]; female rats, p=0.017): 61%
effect on sensitivity to mechanical stimulation of the dura (dural indentation), HT and WDR neurons ([2]; male and female rats): reduced the sensitivity to mechanical stimulation of the dura in the HT but not the WDR neurons
effect on responses to innocuous (brush, pressure) or noxious (pinch) mechanical stimulation of the skin or the cornea ([2]; male or female rats, HT or WDR neurons): did not alter the responses of HT or WDR neurons
effect on spontaneous activity of naïve HT and WDR neurons ([2]; male rats): reduced the spontaneous activity of the HT but not the WDR neurons
decrease of firing of HT neurons in response to dural indentation ([2]; male rats, p=0.047): 75%
decrease of spontaneous neuronal firing, HT neurons ([2]; male rats, within 3-4 hrs, p=0.040): 90%
activation of meningeal nociceptors by CSD (FIGS. 23A and 23B) [3]: prevents the activation of most a-delta and some C-type meningeal nociceptors
C-fibers activated by CSD ([3]; 30 mg/kg IV 4 hours before CSD): 23%
a-delta fibers activated by CSD ([3]; 30 mg/kg IV 4 hours before CSD): 14%
neurons tested that were activated by CSD ([3]; 30 mg/kg IV 4 hours before CSD, all first-order neurons): 20%

— patent US20190071490A1, “Preventing Post-Ictal Headaches” (Beth Israel Deaconess Medical Center, Inc., priority 2017, published 2019)
